We go through 12 substances from article PMC3653948, “PDZ Domain-Mediated Interactions of G Protein-Coupled Receptors with Postsynaptic Density Protein 95: Quantitative Characterization of Interactions” (PLoS ONE, 2013).

By Ki is commonly meant the equilibrium dissociation constant of an inhibitor or competing ligand from its target. By koff is commonly meant the first-order rate constant of dissociation. High values mean fast dissociation, low ones slow dissociation.

The target of test [1] is PSD-95 PDZ3 (aa 309–401) (UniProt P78352). The experiment in a line: fluorescence polarisation; competition: 25 nM Cy5-labeled probe and a constant concentration of PDZ protein corresponding to the K d of the probe, twofold dilution series of unlabeled peptide (typically 1–512 µM); 10 mM HEPES pH 7.4, 150 mM NaCl, 1% BSA; room temperature; K i calculated from the IC50.
The target of test [2] is PSD-95 PDZ1 (aa 61–151) (UniProt P78352). The test is described as above.
For test [3], the target named is PSD-95 PDZ2 (aa 155–249) (UniProt P78352). The description is as above.
Test [4] addresses PSD-95 PDZ3 (aa 309–401) (UniProt P78352). The experiment in a line: SPR; PDZ domains immobilised by amine coupling on Sensor Chip CM5 (PDZ1, PDZ2) or CM4 (PDZ3); peptides injected 1 min, 1 min dissociation, 30 µl/min; […]; HBS-EP+ (10 mM HEPES pH 7.4, 150 mM NaCl, 3 mM EDTA, 0.05% Surfactant P-20). For orientation: In SPR one partner is held on a chip, and binding of the other changes the refractive index at the surface.

In test [5] the target is PSD-95 PDZ1 (aa 61–151) (UniProt P78352). The test is described as above.
The target of test [6] is PSD-95 PDZ2 (aa 155–249) (UniProt P78352). Described as above.

Where only a bound is given, the exact number is not on record here.

Take “5-hydroxytryptamine receptor 2A (5-HTR2A) C-tail peptide, human”: the results for the Ki with PSD-95 PDZ3 (aa 309–401) [1], in the test with PSD-95 PDZ1 (aa 61–151) [2] and with PSD-95 PDZ2 (aa 155–249) [3] were greater than 1000 µM, 160 µM and 46 µM, respectively.
On to “5-hydroxytryptamine receptor 2C (5-HTR2C) C-tail peptide, human”, for which the Ki was 370 µM in the test with PSD-95 PDZ3 (aa 309–401) [1], 100 µM in the test with PSD-95 PDZ1 (aa 61–151) [2] and 26 µM with PSD-95 PDZ2 (aa 155–249) [3]. The koff in the test with PSD-95 PDZ3 (aa 309–401) [4], with PSD-95 PDZ1 (aa 61–151) [5] and with PSD-95 PDZ2 (aa 155–249) [6] was greater than 1 s⁻¹ throughout.
Regarding BAI1 receptor C-tail peptide, human, the Ki with PSD-95 PDZ3 (aa 309–401) [1] was 790 µM; with PSD-95 PDZ1 (aa 61–151) [2] it was 63 µM; with PSD-95 PDZ2 (aa 155–249) [3], 29 µM.
For “chemokine receptor CXCR2 C-tail peptide, human”, in that order: 370 µM, 280 µM and 370 µM.
Turning to “human somatostatin receptor 1 (hSSTR1) C-tail peptide”, the Ki with PSD-95 PDZ3 (aa 309–401) [1] is 200 µM; with PSD-95 PDZ1 (aa 61–151) [2] it was 50 µM; with PSD-95 PDZ2 (aa 155–249) [3], 28 µM.
With “human somatostatin receptor 4 (hSSTR4) C-tail peptide”, the inhibitory constant (Ki) is 600 µM with PSD-95 PDZ3 (aa 309–401) [1], 750 µM with PSD-95 PDZ1 (aa 61–151) [2] and 450 µM with PSD-95 PDZ2 (aa 155–249) [3].
On the same counts, the results for “mouse somatostatin receptor 1 (mSSTR1) C-tail peptide” are greater than 1000 µM, 270 µM and 90 µM.
For the substance “mouse somatostatin receptor 4 (mSSTR4) C-tail peptide”, the figures for the Ki in the test with PSD-95 PDZ3 (aa 309–401) [1], with PSD-95 PDZ1 (aa 61–151) [2] and with PSD-95 PDZ2 (aa 155–249) [3] were greater than 1000 µM, greater than 1000 µM and 420 µM, respectively.
Consider “neuropeptide Y receptor Y2 C-tail peptide, human”, for which the Ki with PSD-95 PDZ3 (aa 309–401) [1] was greater than 1000 µM; in the test with PSD-95 PDZ1 (aa 61–151) [2], 270 µM; with PSD-95 PDZ2 (aa 155–249) [3], 230 µM.
With “somatostatin receptor 2A (SSTR2A) C-tail peptide, human”, the Ki is greater than 1000 µM with PSD-95 PDZ3 (aa 309–401) [1], 620 µM with PSD-95 PDZ1 (aa 61–151) [2] and 230 µM with PSD-95 PDZ2 (aa 155–249) [3].
With “somatostatin receptor 3 (SSTR3) C-tail peptide, human”, the inhibitory constant (Ki) was 280 µM with PSD-95 PDZ3 (aa 309–401) [1], 610 µM with PSD-95 PDZ1 (aa 61–151) [2] and greater than 1000 µM with PSD-95 PDZ2 (aa 155–249) [3].
For “β1-adrenergic receptor (β1AR) C-tail peptide, human”, in that order: 360 µM, 430 µM and 120 µM.
